For 36 sequences, protein stability index results are on record in the supplement of paper PMC10567573.

This series in a line: protein stability index of a GFP-peptide fusion (GPS, HEK-293T) (PSI 1-6); higher = more stable. To be noted: c terminus: a fixed tail appended.

± gives the standard deviation.
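Further: 24-mer peptide tiles fused after GFP, lentivirally expressed, FACS-sorted into six equal bins by GFP/DsRed ratio, decoded by Illumina sequencing, PSI is the read-weighted mean bin number.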

For the sequence VNEFGMSGEDPTAAAPVAEVPTAA [CLPTM1], the protein stability index (treatment: DMSO) was 5.49 ± 0.26 and the protein stability index (treatment: MLN4924 1 uM, 8 h) was determined as 5.39 ± 0.19.
On the same counts, the results for VNEKLPQREGTGKTVSLQIFSVLN [SMOC2] are 2.7 ± 0.37 and 2.84 ± 0.4.
On the same counts, the results for VNSSIKTFFCPNDTYNDMATLFFN [CLCN6] are 2.13 ± 0.31 and 2.26 ± 0.14.
In the same order, the values of VNVTIHFRLKTINLQSLINNEIPD [MCOLN1] are 3.28 ± 0.25 and 3.21 ± 0.25.
Consider VPMILVGNKCDLEDERVVGKEQGQ [RAP1B], for which the protein stability index by setting is: (treatment: DMSO) 4.56 ± 0.35; (treatment: MLN4924 1 uM, 8 h) 4.72 ± 0.39.
On the same counts, the results for VPVRRPARRRQSAGPWPRPKGSLS [RASAL3] are 4.73 ± 0.25 and 4.68 ± 0.23.
On the same counts, the results for VQRLQAYTATEQEMQQQMSLGELC [TRIM14] are 4 ± 0.077 and 3.9 ± 0.21.
In the same order, the values of VQSEIFLHESYCMDTSHQPLLPAP [LYSMD4] are 2.93 ± 0.23 and 2.76 ± 0.28.
As to VRAWDLETGKLLWKVRYDTFIVSC [WDR88], the protein stability index reads like this: (treatment: DMSO) 2.67 ± 0.069; (treatment: MLN4924 1 uM, 8 h) 2.11 ± 0.48.
On the same counts, the results for VRNDSCVVHEDFREDILSCYDVYS [PKD2L1] are 2.99 ± 0.34 and 3.16 ± 0.28.
As to VRSQTLPRTSEAQARKALFEKWEQ [SMTNL2], the protein stability index runs as follows: (treatment: DMSO) 3.98 ± 0.28; (treatment: MLN4924 1 uM, 8 h) 4.16 ± 0.47.
On the same counts, the results for VTEDLRLKDWEHSIALRNISLAKG [SCARA5] are 3.5 ± 0.26 and 3.59 ± 0.39.
In the same order, the values of VTGMELEFKRLASSKAHTSRFISA [PTPRD] are 2.71 ± 0.33 and 2.81 ± 0.4.
On the same counts, the results for VTQDGRKIYFTDSSSKWQRRDYLL [APMAP] are 2.51 ± 0.18 and 2.41 ± 0.63.
VTSQATLLTITKAHSNAISNCCFT [WDR88]: the protein stability index came to 2.3 ± 0.55 (treatment: DMSO) and 2.18 ± 0.28 (treatment: MLN4924 1 uM, 8 h).
In the same order, the values of VVCASYEDYGHWLLCLRAVTHREG [PLEKHN1] are 2.52 ± 0.56 and 2.62 ± 0.49.
In the case of VVEVENFLFVLGGEDQWNPNGKHS [KLHL14], the protein stability index runs as follows: (treatment: DMSO) 2.39 ± 0.31; (treatment: MLN4924 1 uM, 8 h) 2.37 ± 0.19.
Regarding VVEVTKGILEHVDSASPVEDTSND [M1AP], the protein stability index (treatment: DMSO) worked out at 5.54 ± 0.23 and the protein stability index (treatment: MLN4924 1 uM, 8 h) worked out at 5.47 ± 0.31.
In the same order, the values of VVVESMEQDRIPEVHVPPSSAVSG [MIA2] are 4.45 ± 0.36 and 4.48 ± 0.2.
In the same order, the values of VYFKRFYARYSLKSIDPVLMAPTC [CCNC] are 3.11 ± 1.3 and 2.13 ± 0.32.
In the same order, the values of VYMTEPIDEYCVQQLKEFDGKSLV [HSP90AB1] are 3.06 ± 0.15 and 3.29 ± 0.25.
On to WFGASVLSLLELLELLLDASALTL [SCNN1D], for which the protein stability index turned out to be 2.54 ± 0.74 (treatment: DMSO) and 2.15 ± 0.31 (treatment: MLN4924 1 uM, 8 h).
On the same counts, the results for WFQDPTRFTGTMDAFVKIVRHEGT [SLC25A39] are 2.17 ± 0.25 and 2.23 ± 0.37.
In the same order, the values of WMLTRKQFGLLSFFFAVLHAIYSL [STEAP1] are 1.95 ± 0.54 and 2.1 ± 0.27.
On the same counts, the results for WQDSDTVKLLVDLELSYGFENGQK [TOR1AIP2] are 2.7 ± 0.37 and 2.65 ± 0.49.
Take WTSFICDTYIVLAWISKIKGSPDV [SMIM2]: the protein stability index stood at 3.52 ± 0.58 (treatment: DMSO) and 2.53 ± 0.38 (treatment: MLN4924 1 uM, 8 h).
In the same order, the values of YCESHAKARVKPPEGYDVVAVYPN [PDLIM4] are 3.74 ± 0.38 and 4.08 ± 0.25.
In the same order, the values of YDLEYWAFHDGQRSRLRPRDDLDR [TRIM14] are 3.52 ± 0.36 and 3.69 ± 0.34.
In the same order, the values of YDPNYMSPFAQFACDNGLNVRGGK [PPTC7] are 3.63 ± 1 and 4.11 ± 0.43.
Take YEAGQVTLHNAQTQEPIFTFTASF [TRIM15]: the protein stability index runs as follows: (treatment: DMSO) 2.38 ± 0.17; (treatment: MLN4924 1 uM, 8 h) 2.11 ± 0.15.
On the same counts, the results for YERSFIHKIKHKHILAKNYFSQVP [IQUB] are 2.12 ± 0.61 and 2.24 ± 0.27.
For the sequence YFLLCDVLPEDRILREELQKQRLR [ZNF277], the protein stability index is 2.37 ± 0.3 (treatment: DMSO) and 2.28 ± 0.54 (treatment: MLN4924 1 uM, 8 h).
For the sequence YIESSTKVYDDMAFRYLSWILFPL [CLPTM1], the protein stability index is 2.73 ± 0.13 (treatment: DMSO) and 2.61 ± 0.47 (treatment: MLN4924 1 uM, 8 h).
In the same order, the values of YIPSSYVDSHHEYPAMTFYSPAVM [ESR2] are 2.73 ± 0.93 and 2.6 ± 0.45.
In the same order, the values of YIYYNEKYGGPNHHLPLPDNWKSQ [CPN1] are 2.46 ± 0.75 and 2.35 ± 0.37.
In the same order, the values of YLLALTIIVSIVHSVFEFLAFKND [CLPTM1] are 2.985 ± 0.024 and 2.85 ± 0.5.
